In assay [1] the target is T1, human 4-1BB (human, UniProt Q07011 24-186).
T1 construct: SPR (Biacore) analyte; also called hu4-1BB
Description: SPR (Biacore). In general terms: SPR reads the build-up and loss of mass on a sensor chip optically.

Assay [2] addresses T1, human 4-1BB. Description: SPR.
The next assay concerns the target T2, mouse 4-1BB (mouse, UniProt P20334 24-187).
T2 construct: also called mu4-1BB; murine 4-1BB
T2 sequence (looked up): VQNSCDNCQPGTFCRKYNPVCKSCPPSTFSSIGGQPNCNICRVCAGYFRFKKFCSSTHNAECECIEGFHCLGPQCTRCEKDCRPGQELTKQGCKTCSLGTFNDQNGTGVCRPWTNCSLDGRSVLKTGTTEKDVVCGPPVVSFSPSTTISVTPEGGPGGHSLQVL
Put plainly: SPR.

Assay [3] deals with human CD40 on cells (HEK293 stable transfectants, HEK-Blue CD40 cells, human B cells, monocytic cells, … (human, UniProt P25942 21-277)). Put plainly: cell-based or functional assay.
In assay [4] the target is T3, soluble form of the extracellular domain of cynomolgus (cyno) CD40 (Creative BioMart) (cynomolgus, UniProt G7PG38 21-193).
T3 construct: extracellular domain; also called Cynomolgus CD40
Put plainly: SPR.

For the next assay, the target named is T4, human mesothelin (human, UniProt Q13421 296-580, limits assumed).
T4 construct: also called Human MSLN
Description: SPR.

Assay [5] deals with T5, soluble form of the extracellular domain of human CD40 (Creative BioMart) (human, UniProt P25942 21-193).
T5 construct: Bought
Put plainly: SPR.

Changes are numbered by the printed parent chain. Names and notes keep the numbering of the source.

One may read the Kd as the constant that tells how readily two partners part at equilibrium. A low value points to higher affinity. As usually defined, the koff is a measure of how fast the partners let go of each other. Low readings indicate slow dissociation, high ones fast dissociation. As a reminder, the kon is the rate constant with which the complex forms. A lower kon goes with slower complex formation.

T4 sequence (Q13421 other isoform, or with tags, fused parts or gaps limits assumed): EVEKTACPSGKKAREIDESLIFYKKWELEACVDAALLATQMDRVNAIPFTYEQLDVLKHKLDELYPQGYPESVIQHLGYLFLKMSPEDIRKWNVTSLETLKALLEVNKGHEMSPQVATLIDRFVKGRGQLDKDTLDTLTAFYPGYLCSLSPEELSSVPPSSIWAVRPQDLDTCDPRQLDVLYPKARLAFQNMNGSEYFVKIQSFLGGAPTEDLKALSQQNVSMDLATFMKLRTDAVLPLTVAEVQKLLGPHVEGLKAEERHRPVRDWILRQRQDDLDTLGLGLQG
T5 sequence (P25942 21-193 limits assumed): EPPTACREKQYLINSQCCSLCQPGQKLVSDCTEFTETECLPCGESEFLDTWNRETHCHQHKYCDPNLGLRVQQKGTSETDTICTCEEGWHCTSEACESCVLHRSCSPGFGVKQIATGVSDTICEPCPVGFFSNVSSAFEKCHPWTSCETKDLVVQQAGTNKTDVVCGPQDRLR
human CD40 on cells (HEK293 stable transfectants, HEK-Blue CD40 cells, human B cells, monocytic cells, …, sequence (P25942 21-277 limits assumed): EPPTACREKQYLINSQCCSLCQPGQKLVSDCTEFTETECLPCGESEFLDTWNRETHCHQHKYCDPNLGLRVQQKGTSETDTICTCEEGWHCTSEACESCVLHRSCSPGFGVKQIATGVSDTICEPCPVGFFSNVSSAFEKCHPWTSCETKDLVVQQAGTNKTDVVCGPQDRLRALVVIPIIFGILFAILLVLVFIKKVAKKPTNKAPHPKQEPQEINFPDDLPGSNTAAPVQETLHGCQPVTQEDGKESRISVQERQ

B1: TABBY3-mIgG2b (antibody, V domains shown)
VH: GVQLVESGGGLVQPGGSRKLSCAASGFTFSSFGMHWFRQAPEKGLEWVAYISSGSSTIYYADTLKGRFTISRDNPKNTLFLQMTSLRSEDTAMYYCARDWVDYWGQGTTLTVSS
VL: DIVITQDELSNPVTSGESASISCRSSKSLLYKDGKTYLNWFLQRPGQSPQLLIYLMSTRASGVSDRFTGSGSGTDFTLEISRVKAEDVGVYYCQQPVEYPYTFGGGTKLEIK
notes: mouse IgG2b
For the molecule B1, the Kd with human 4-1BB [1] is 6.6 nM. That is a single-digit nanomolar value.

B2: TABBY1.1-mIgG1 (antibody, V domains shown)
VH: EVQLVESGGDLVKPGGSQKLSCAASGFTFSSYGMSWVRQTPDRRLEWVAAIISGGSYTYYPDSVKGRFTISRDNAKNTLYLQMNSLKSEDTAMYYCARHGGYDGNYDYYAMDYWGQGTSVTVSS
VL: DVLMTQTPLSLPVSLGDQASISCRSSQSIVDSDGITYLEWYLQKPGQSPKLLIYKVSNRFSGVPDRFSGSGSGTDFTLRISRVEAEDLGLYYCFQVSHVPWTFGGGTKLEIK
notes: mouse IgG1
The molecule B2 returned a Kd in the assay with human 4-1BB [1] of 2 nM.

B3: hu106-1 (antibody, V domains shown)
VH: EVQLVQSGAEVKKPGSSVKVSCKASGYTFTSYYIYWVRQAPGQGLEWIGNIWPGNGGTFYGEKFMGRATFTADTSTSTAYMELSSLRSEDTAVYYCARRPDYSGDDYFDYWGQGTLVTVSS
VL: NVMLTQPHSVSESPGKTVTISCKLNSGNIGSYYVHWYQQRPGSSPTTMIYRDDKRPDGVPDRFSGSIDSSSNSASLTISGLKTEDEADYYCHSYDSTITPVFGGGTKLTVL
notes: human IgG1 constant regions with L234A and L235A
In the assay with human 4-1BB [2], B3 gave a Kd of 130 nM, a koff of 0.074 s⁻¹ and a kon of 570000 M⁻¹ s⁻¹. In the assay with mouse 4-1BB, this molecule had a Kd of 17 nM, a koff of 0.036 s⁻¹ and a kon of 2.2e+06 M⁻¹ s⁻¹.

B4: TABBY5-mIgG2b (antibody, V domains shown)
VH: EVQLQQSGAELVRPGASVKLSCTASGFNIKDYYMHWVKQRPEQGLEWIGRIDPEDGDTEYVPKFQGKATMTADTSSNTAYLQLSSLTSEDTAVYYCTPYSNYVYWYFDVWGTGTTVTVSS
VL: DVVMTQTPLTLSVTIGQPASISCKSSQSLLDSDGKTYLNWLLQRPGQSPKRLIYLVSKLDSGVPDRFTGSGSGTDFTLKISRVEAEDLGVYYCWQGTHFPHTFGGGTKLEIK
notes: mouse IgG2b
B4: binding in the assay with human 4-1BB [1] was put at a Kd of 0.3 nM.

B5: TABBY6-mIgG1 (antibody, V domains shown)
VH: B4 VH with V61A, S85T
VL: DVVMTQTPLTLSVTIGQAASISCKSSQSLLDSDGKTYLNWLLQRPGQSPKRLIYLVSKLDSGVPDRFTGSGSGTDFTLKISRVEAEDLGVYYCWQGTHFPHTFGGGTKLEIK
notes: mouse IgG1
Turning to B5, the Kd with human 4-1BB [1] turned out to be 1.9 nM.

B6: CF4 (bispecific antibody, human IgG1, lambda)
heavy: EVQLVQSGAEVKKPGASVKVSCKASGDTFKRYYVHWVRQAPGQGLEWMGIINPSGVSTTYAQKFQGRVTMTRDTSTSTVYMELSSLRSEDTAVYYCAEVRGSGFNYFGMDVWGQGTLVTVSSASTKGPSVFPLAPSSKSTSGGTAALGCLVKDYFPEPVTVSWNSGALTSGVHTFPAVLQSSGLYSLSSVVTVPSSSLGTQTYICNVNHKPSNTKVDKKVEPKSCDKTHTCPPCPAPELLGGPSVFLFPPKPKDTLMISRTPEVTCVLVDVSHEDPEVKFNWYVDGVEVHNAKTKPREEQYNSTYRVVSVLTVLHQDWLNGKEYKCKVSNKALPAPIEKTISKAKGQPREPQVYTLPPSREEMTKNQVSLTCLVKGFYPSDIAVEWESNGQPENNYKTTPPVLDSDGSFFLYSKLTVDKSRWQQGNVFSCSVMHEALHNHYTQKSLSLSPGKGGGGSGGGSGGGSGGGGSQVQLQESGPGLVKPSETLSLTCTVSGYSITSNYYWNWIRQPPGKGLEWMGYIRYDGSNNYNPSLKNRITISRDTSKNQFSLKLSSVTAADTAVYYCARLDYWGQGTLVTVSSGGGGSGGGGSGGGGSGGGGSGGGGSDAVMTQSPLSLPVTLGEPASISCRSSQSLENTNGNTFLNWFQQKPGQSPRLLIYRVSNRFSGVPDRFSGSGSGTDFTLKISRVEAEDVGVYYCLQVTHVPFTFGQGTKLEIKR
light: SYELTQPPSVSVSPGQTASITCSGDKLGDKYASWYQQKPGQSPVLVIYQDNRRPSGIPERFSGSNSGNTATLTISGTQAMDEADYYCQAWDSDTYVFGTGTKVTVLGQPKAAPSVTLFPPSSEELQANKATLVCLISDFYPGAVTVAWKADSSPVKAGVETTTPSKQSNNKYAASSYLSLTPEQWKSHRSYSCQVTHEGSTVEKTVAPTECS
In the case of B6, in assay [3], the “Max. IL-12p70, dendritic cells with cell-surface mesothelin” value (shortened to “Max. IL-12p70, dendritic cells”) was found to be 50 pg/mL.

B7: CF5 (bispecific antibody, human IgG1, lambda)
heavy: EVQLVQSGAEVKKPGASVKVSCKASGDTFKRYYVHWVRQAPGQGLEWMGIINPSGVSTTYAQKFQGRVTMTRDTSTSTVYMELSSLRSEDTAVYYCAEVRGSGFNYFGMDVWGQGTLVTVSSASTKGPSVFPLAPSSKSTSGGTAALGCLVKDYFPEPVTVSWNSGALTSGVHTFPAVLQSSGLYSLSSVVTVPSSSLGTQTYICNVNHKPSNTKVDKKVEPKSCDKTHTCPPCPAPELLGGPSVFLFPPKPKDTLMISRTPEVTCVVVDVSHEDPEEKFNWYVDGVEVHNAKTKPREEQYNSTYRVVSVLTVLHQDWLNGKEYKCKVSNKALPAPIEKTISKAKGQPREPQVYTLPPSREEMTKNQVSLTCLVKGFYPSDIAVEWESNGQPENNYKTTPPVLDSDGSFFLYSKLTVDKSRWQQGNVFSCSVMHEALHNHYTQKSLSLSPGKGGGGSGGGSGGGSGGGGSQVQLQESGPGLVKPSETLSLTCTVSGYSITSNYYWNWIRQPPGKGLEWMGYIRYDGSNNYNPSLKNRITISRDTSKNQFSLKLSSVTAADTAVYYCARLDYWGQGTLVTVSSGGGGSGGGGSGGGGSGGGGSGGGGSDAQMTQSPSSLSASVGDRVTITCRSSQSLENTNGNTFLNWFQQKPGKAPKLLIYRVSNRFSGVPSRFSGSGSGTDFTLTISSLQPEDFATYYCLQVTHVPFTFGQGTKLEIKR
light: B6 light
Turning to B7, the “Max. IL-12p70, dendritic cells” value in assay [3] turned out to be 60 pg/mL.

B8: CF9 (bispecific antibody, human IgG1, lambda)
heavy: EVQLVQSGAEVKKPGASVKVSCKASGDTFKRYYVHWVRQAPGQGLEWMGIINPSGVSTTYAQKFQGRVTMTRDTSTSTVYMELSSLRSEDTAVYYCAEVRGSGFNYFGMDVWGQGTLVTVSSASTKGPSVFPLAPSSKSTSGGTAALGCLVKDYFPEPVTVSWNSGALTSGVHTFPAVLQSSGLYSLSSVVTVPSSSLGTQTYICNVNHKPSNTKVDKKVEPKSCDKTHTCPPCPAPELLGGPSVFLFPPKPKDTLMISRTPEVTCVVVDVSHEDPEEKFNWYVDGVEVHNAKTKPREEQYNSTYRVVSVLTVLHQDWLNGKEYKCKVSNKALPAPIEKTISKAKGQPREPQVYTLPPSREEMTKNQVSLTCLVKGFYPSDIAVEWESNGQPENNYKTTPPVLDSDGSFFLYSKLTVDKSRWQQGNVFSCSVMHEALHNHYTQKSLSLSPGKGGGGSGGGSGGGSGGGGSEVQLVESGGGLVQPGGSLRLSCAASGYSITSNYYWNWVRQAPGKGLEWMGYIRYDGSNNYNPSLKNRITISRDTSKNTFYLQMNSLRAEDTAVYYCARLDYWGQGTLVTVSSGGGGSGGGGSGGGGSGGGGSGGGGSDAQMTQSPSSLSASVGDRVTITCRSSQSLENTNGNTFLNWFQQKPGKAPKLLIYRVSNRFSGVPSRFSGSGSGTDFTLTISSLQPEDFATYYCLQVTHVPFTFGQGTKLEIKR
light: B6 light
With B8, the “Max. IL-12p70, dendritic cells” value in assay [3] came to 120 pg/mL.

B9: V5-2 (bispecific antibody)
chain 1: EVQLQESGPGLVKPSETLSLTCTVSGYSITSNYYWNWIRQPPGKGLEWMGYIRYDGSNNYNPSLKNRVTISRDTSKNQFSLKLSSVTAADTAVYYCARLDYWGQGTTVTVSS
chain 2: DAVMTQTPLSLSVTPGQPASISCRSSQSLENTNGNTFLNWYLQKPGQSPQLLIYRVSNRFSGVPDRFSGSGSGTDFTLKISRVEAEDVGVYYCLQVTHVPFTFGQGTKLEIK
chain 3: EVQLVQSGAEVKKPGASVKVSCKASGDTFKRYYVHWVRQAPGQGLEWMGIINPSGVSTTYAQKFQGRVTMTRDTSTSTVYMELSSLRSEDTAVYYCAEVRGSGFNYFGMDVWGQGTLVTVSS
chain 4: SYELTQPPSVSVSPGQTASITCSGDKLGDKYASWYQQKPGQSPVLVIYQDNRRPSGIPERFSGSNSGNTATLTISGTQAMDEADYYCQAWDSDTYVFGTGTKVTVL
B9: the Kd in assay [4] worked out at 120 nM; with human mesothelin, 2 nM; in assay [5] it was 150 nM. In addition, the koff in assay [4] stood at 0.11 s⁻¹; with human mesothelin, 2.8e-05 s⁻¹; in assay [5], 0.25 s⁻¹. Further, the kon in assay [4] amounted to 940000 M⁻¹ s⁻¹; with human mesothelin, 14000 M⁻¹ s⁻¹; in assay [5], 1.7e+06 M⁻¹ s⁻¹.

B10: V6-8 (bispecific antibody)
chain 1: B9 chain 1
chain 2: DAQMTQSPSSLSASVGDRVTITCRSSQSLENTNGNTFLNWFQQKPGKAPKLLIYRVSNRFSGVPSRFSGSGSGTDFTLTISSLQPEDFATYYCLQVTHVPFTFGQGTKLEIK
chain 3: EVQLLESGGGLVQPGGSLRLSCAASGFTFSSYAMSWVRQAPGKGLEWVSAISGGGGRTYYADSVKGRFTISRDNSKNTLYLQMNSLRAEDTAVYYCAREEMAFRAYRFDIWGQGTLVTVSS
chain 4: not shown
With B10, in assay [4], the Kd was 11 nM, the koff is 0.013 s⁻¹ and the kon came to 1.3e+06 M⁻¹ s⁻¹. Further, in the assay with human mesothelin, binding was characterised by a dissociation constant (Kd) of 11 nM, the koff was found to be 0.0015 s⁻¹ and the kon is 130000 M⁻¹ s⁻¹. Also, in assay [5], the Kd amounted to 14 nM, the koff came out at 0.014 s⁻¹ and the kon amounted to 970000 M⁻¹ s⁻¹.

B11: hu107-1 (antibody, V domains shown)
VH: EVQLVQSGAEVKKPGSSVKVSCKASDYTFNDYWVSWVRQAPGQGLEWIGEIYPNSGATNFNGKFRGRATLTVDNSASTAYMELSSLRSEDTAVYYCTREYTRDWFAYWGQGTLVTVSS
VL: DVVLTQSPLSLPVTLGQPASISCRSSQSLLDSDGNTYLYWFQQRPGQSPRRLIYLVSNLGSGVPDRFSGSGSGTDFTLKISRVEAEDVGVYYCMQPTHAPYTFGQGTKLEIK
notes: as for B3
In the assay with human 4-1BB [2], B11 returned a Kd of 0.16 nM, a koff of 6.5e-05 s⁻¹ and a kon of 410000 M⁻¹ s⁻¹. In the assay with mouse 4-1BB, this molecule showed a Kd of 5.2 nM, a koff of 0.0013 s⁻¹ and a kon of 240000 M⁻¹ s⁻¹.

B12: TABBY10-mIgG1 (antibody, V domains shown)
VH: QIQLVQSGPELKKPGETVKISCKASGYTFTTYGMSWVKQAPGKGLKWMGWINTYSGVPTYADDFKGRFAFSLETSASTAYLQINNLKNEDTATYFCARGNDGNYYGWFAHWGQGTLVTVSA
VL: DIQMTQSPSSLSASLGGKVTITCKASQDIHNYISWYQHKPGKGPRLVIHYTSTLQPGIPSRFSGSGSGRDYSFSISNLEPEDIATYYCLQYDNLYTFGGGTKLEIK
notes: mouse IgG1
In the assay with human 4-1BB [1], B12 had a Kd of 3.1 nM. This lies in the single-digit nanomolar range.

Values taken from US20180194862A1 (AbbVie / Abbott, published 2018).
